Patent US20180327746, “Alpha-AMYLASE-BINDING NUCLEIC ACID MOLECULE AND USE THEREOF” (NEC Solution Innovators, Ltd., published 2018)

How the values were obtained:
Settings in all cases: tags: none stated; commercial human alpha-amylase, Lee Biosolutions; label: 3' poly(dA)20 captured on biotin-poly(dT)20
alpha-amylase [1] = molecular target: T1, alpha-amylase (Homo sapiens, UniProt P0DUB6 P0DUB6:16-511); experiment: SPR; 40 mM HEPES pH 7.4, 125 mM NaCl, 5 mM KCl, 1 mM MgCl2, 0.01% Tween 20; Chi2 2.68
T1 sequence: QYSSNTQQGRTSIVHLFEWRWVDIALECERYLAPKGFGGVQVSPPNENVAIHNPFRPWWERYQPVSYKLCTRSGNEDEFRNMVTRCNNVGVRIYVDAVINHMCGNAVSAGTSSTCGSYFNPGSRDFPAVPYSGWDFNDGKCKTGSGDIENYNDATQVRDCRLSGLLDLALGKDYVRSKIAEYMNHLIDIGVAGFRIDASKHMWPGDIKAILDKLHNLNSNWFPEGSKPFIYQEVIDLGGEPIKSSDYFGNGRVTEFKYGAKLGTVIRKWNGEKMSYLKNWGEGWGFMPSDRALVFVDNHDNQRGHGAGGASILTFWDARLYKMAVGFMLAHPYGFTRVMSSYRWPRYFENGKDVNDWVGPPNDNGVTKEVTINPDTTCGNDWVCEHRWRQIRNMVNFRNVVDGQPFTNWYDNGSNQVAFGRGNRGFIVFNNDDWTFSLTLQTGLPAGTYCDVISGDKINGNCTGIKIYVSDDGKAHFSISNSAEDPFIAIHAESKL
Protocol: (§1) Biotinylated poly(dT) at 5 μmol/L was injected to a flow cell of the sensor chip using ultrapure water (DDW), and the binding was allowed to proceed until the signal intensity (RU: Resonance Unit) reached about 900 RU. The biotinylated poly(dT) was prepared by biotinylating the 5′ end of 20-mer deoxythymidine. Then, the poly(dA)-added aptamer at 200 nmol/L was injected to the flow cell of the chip using an SPR buffer at a flow rate of 25 μL/min for 80 seconds, and the binding was allowed to proceed until the signal intensity reached about 800 RU. […] With 0 seconds being the start of the injection, the mean value of signal intensities from 115 seconds to 125 seconds was determined. […] Then, the value (B/A) obtained by dividing the protein binding measured value (B) by the aptamer immobilization measured value (A) was determined as a relative value (Relative Unit).
(§2) The binding ability of the aptamers was analyzed by SPR in the same manner as in Example 1, except that the concentration of the α-amylase in the specimen was set to a plurality of values. The concentration was set to 20 nmol/L, 10 nmol/L, 5 nmol/L, 2.5 nmol/L, and 1.25 nmol/L. Then, from the results obtained by the SPR analysis, the kinetic parameter and the chi-squared value were calculated.

alpha-amylase [2] = molecular target: T1, alpha-amylase; experiment: SPR; SPR buffer with 1 mM MgCl2, pH 7.4; Chi2 5.69
Protocol: as §1, §2

alpha-amylase [3] = molecular target: T1, alpha-amylase; experiment: SPR; SPR buffer with 1 mM MgCl2, pH 7.4; Chi2 23.63
Protocol: as §1, §2

alpha-amylase [4] = molecular target: T1, alpha-amylase; experiment: SPR; SPR buffer with 1 mM MgCl2, pH 7.4; Chi2 30.79
Protocol: as §1, §2

alpha-amylase [5] = molecular target: T1, alpha-amylase; experiment: SPR; SPR buffer with 1 mM MgCl2, pH 7.4; Chi2 18.8
Protocol: as §1, §2

alpha-amylase [6] = molecular target: T1, alpha-amylase; experiment: SPR; SPR buffer with 1 mM MgCl2, pH 7.4; Chi2 17.73
Protocol: as §1, §2

alpha-amylase [7] = molecular target: T1, alpha-amylase; experiment: SPR; 400 nM amylase, 1 mM MgCl2, pH 7.4
Protocol: The analysis of the binding ability was carried out using a ProteON XPR36 (BioRad) in accordance with its instructions for use.
First, as a sensor chip designed specifically for the ProteON, a streptavidin-immobilized chip (trade name: ProteOn NLC Sensor Chip, BioRad) was set in the ProteON XPR36. Biotinylated poly(dT) at 5 μmol/L was injected to a flow cell of the sensor chip using ultrapure water (DDW), and the binding was allowed to proceed until the signal intensity (RU: Resonance Unit) reached about 900 RU. The biotinylated poly(dT) was prepared by biotinylating the 5′ end of 20-mer deoxythymidine. Then, the poly(dA)-added aptamer at 200 nmol/L was injected to the flow cell of the chip using an SPR buffer at a flow rate of 25 μL/min for 80 seconds, and the binding was allowed to proceed until the signal intensity reached about 800 RU. […] Subsequently, the specimen was injected using the SPR buffer at a flow rate of 50 μL/min for 120 seconds, followed by washing performed by flowing the SPR buffer under the same conditions for 300 seconds. The concentration of the human α-amylase in the specimen was set to 400 nmol/L. Signal intensity measurement was performed concurrently with the injection of the specimen and the washing with the SPR buffer. With 0 seconds being the start of the injection, the mean value of signal intensities from 115 seconds to 125 seconds was determined. […] Then, the value (B/A) obtained by dividing the protein binding measured value (B) by the aptamer immobilization measured value (A) was determined as a relative value (Relative Unit).

alpha-amylase [8] = molecular target: T1, alpha-amylase; experiment: SPR; SPR buffer with 1 mM MgCl2, pH 7.4; Chi2 29.33
Protocol: as §1, §2

B1: AML1243KR8m1s58_FW_s15 (ssDNA)
DNA: TAACGCCGCCTATTGTGAACGACGTGAATAGTGTTTGTGGGTCCGGAGTTAAAAAAAAAAAAAAAAAAAA
modifications: KS9 modified T (formula 1) at underlined T, i.e. T 3' of the 5' primer region
Work on B1 yielded a Kd (alpha-amylase [1]) of 0.358 nM.

B2: Amy_258KK10R8m4 (ssDNA)
DNA: GGTTACGCCCAGGACACATTTCTGTAGTGAAGTCCTGGTTGGCAAATTCATGGTAAGCTCGGTCTCCTCGGATAATCAAAAAAAAAAAAAAAAAAAA
modifications: KK10 modified T (formula 2) at double-underlined T, i.e. T 3' of the 5' primer region
B2 was tested, and the Kd (alpha-amylase [2]) was 7.34 nM.

B3: AML1243KR8m3s63 (ssDNA)
DNA: GGATACCTTAACGCCGCCTATTGCGAGGTGTGGCTAGTCGTTATAGGTCCACCGAGTTGCACCAAAAAAAAAAAAAAAAAAAA
modifications: KS9 modified T (formula 1) at underlined T, i.e. T 3' of the 5' primer region
In the case of B3, the Kd (alpha-amylase [3]) is reported as 16.4 nM.

B4: AML1243KR8m3s63Fw_s15 (ssDNA)
DNA: TAACGCCGCCTATTGCGAGGTGTGGCTAGTCGTTATAGGTCCACCGAGTTGCACCAAAAAAAAAAAAAAAAAAAA
modifications: KS9 modified T (formula 1) at underlined T, i.e. T 3' of the 5' primer region
B4 gave a Kd (alpha-amylase [4]) of 18.7 nM.

B5: AML1243KR8m2s49 (ssDNA)
DNA: GGATACCTTAACGCCGCCTATTGCTATGAGTAGTGTTTGTAGGTCTGGCAAAAAAAAAAAAAAAAAAAA
modifications: KS9 modified T (formula 1) at underlined T, i.e. T 3' of the 5' primer region
Work on B5 yielded a Kd (alpha-amylase [5]) of 3.19 nM.

B6: AML1243KR8m2s63 (ssDNA)
DNA: GGATACCTTAACGCCGCCTATTGCTATGAGTAGTGTTTGTAGGTCTGGCATGCGAGTTGCACCAAAAAAAAAAAAAAAAAAAA
modifications: KS9 modified T (formula 1) at underlined T, i.e. T 3' of the 5' primer region
Binder B6 has a Kd (alpha-amylase [6]) of 3.93 nM.

B7: AML1243KR8m5 (ssDNA)
DNA: GGATACCTTAACGCCGCCTATTGAGTTCAACAATGACTAGTGTTTGTCGGTCTGAGTTGCACCCGTCTCGAAATCAAAAAAAAAAAAAAAAAAAA
modifications: KS9 modified T (formula 1) at underlined T, i.e. T 3' of the 5' primer region
B7: binds (alpha-amylase [7]).

B8: AML1243KR8m3s63Fw_s20 (ssDNA)
DNA: TACCTTAACGCCGCCTATTGCGAGGTGTGGCTAGTCGTTATAGGTCCACCGAGTTGCACCAAAAAAAAAAAAAAAAAAAA
modifications: KS9 modified T (formula 1) at underlined T, i.e. T 3' of the 5' primer region
In the case of B8, the Kd (alpha-amylase [8]) is reported as 16.6 nM.
